Two substances from paper doi:10.64898/2025.12.17.694835 can be followed below.

The target in test [1] is HALOGluA2(R) (GluA2(R) subunit with HALO domain inserted between signal peptide and N-terminal domain) (rat) (UniProt P19491). The experiment in a line: FRET or BRET. (BRET reads energy transfer from a luciferase to a nearby fluorophore.)
Test [2] concerns the target HALOGluA3 (GluA3 subunit with HALO domain inserted between signal peptide and N-terminal domain) (rat) (UniProt P19492). Kind of test: FRET or BRET.

Sequence of HALOGluA3 (GluA3 subunit with HALO domain inserted between signal peptide and N-terminal domain) (rat) (P19492 23-888): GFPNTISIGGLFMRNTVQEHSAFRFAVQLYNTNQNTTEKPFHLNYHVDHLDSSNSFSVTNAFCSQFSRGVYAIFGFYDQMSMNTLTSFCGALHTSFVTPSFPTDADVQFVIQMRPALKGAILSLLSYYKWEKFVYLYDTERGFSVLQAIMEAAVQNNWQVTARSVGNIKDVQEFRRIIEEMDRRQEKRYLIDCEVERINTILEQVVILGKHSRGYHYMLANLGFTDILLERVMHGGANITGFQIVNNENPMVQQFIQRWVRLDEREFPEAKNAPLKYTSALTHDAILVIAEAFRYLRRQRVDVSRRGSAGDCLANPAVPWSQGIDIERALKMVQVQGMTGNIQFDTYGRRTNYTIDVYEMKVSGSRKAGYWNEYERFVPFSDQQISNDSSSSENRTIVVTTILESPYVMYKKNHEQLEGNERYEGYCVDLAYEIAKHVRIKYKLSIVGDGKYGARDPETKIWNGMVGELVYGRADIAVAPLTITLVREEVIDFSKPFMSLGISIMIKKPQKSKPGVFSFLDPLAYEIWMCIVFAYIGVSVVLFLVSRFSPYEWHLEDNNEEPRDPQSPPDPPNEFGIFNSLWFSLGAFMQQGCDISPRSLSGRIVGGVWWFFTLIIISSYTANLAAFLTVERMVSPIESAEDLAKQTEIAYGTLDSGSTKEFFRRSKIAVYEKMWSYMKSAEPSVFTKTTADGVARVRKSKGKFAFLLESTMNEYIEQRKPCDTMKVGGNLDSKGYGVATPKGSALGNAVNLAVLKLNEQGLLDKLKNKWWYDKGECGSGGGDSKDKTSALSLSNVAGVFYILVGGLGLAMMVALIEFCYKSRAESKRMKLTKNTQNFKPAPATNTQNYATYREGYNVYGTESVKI
Sequence of CFPGluA1 (GluA1 subunit with CFP inserted between signal peptide and N-terminal domain) (P19490 19-907): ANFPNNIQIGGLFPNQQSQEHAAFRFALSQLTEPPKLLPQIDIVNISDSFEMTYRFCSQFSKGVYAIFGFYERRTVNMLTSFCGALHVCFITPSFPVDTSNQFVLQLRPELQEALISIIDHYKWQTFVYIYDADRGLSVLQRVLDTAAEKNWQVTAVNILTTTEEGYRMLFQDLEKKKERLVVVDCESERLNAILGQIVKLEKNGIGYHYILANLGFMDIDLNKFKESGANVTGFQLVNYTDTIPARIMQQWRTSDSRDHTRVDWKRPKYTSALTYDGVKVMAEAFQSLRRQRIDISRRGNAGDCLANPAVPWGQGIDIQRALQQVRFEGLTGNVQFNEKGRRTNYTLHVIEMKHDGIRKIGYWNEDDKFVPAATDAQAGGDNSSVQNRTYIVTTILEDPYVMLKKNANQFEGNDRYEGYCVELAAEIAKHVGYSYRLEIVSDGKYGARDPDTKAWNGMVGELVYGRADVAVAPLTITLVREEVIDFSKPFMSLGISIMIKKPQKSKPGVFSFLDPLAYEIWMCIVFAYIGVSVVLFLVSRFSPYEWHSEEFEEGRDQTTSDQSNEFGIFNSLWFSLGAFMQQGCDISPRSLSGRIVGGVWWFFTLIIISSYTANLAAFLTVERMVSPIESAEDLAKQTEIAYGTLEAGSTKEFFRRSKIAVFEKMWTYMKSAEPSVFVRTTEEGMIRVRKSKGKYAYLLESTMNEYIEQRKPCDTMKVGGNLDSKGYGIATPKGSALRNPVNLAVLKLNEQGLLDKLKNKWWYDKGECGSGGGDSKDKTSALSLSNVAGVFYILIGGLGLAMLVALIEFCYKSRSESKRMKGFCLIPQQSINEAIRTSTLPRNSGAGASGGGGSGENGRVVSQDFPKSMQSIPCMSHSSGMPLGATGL
Sequence of CFPGluA2(R) (GluA2(R) subunit with CFP inserted between signal peptide and N-terminal domain) (P19491 22-883): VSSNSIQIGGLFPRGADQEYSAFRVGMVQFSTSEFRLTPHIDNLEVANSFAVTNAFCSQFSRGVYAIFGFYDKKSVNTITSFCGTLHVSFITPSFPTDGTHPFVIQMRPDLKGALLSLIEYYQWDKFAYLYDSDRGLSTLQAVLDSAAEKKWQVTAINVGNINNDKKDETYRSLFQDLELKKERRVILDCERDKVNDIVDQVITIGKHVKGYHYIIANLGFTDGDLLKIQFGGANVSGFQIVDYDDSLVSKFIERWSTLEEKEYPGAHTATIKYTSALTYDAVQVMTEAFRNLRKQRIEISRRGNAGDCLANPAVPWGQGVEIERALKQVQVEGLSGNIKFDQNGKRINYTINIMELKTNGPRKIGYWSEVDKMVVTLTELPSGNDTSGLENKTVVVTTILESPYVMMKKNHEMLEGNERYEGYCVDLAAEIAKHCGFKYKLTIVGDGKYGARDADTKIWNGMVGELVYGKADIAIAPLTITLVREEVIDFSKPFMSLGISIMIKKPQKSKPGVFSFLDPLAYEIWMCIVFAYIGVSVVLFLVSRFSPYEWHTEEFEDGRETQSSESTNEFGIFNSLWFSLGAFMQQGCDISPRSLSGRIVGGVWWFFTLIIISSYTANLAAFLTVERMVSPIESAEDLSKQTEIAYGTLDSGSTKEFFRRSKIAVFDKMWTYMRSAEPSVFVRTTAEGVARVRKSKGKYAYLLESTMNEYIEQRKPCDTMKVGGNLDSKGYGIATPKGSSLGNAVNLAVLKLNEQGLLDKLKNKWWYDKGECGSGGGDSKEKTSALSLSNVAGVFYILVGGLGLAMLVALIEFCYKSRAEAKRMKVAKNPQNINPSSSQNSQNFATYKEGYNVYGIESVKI
Sequence of HALOGluA2(R) (GluA2(R) subunit with HALO domain inserted between signal peptide and N-terminal domain) (rat) (P19491 22-883): as above

As for “CFPGluA1 (GluA1 subunit with CFP inserted between signal peptide and N-terminal domain) (from UniProt P19490 19-907) (receptor)”, in test [1], the CFP (donor) lifetime mean in the presence of the acceptor AF488 is 2.03 and the E FRET was 38.5%.
For “CFPGluA2(R) (GluA2(R) subunit with CFP inserted between signal peptide and N-terminal domain) (from UniProt P19491 22-883) (receptor)”, in test [2], the CFP (donor) lifetime mean in the presence of the acceptor AF488 is 2.51 and the E FRET was 27%.
